Where a chain is given by its changes, count along the chain named. Each block holds one binder with its values, some of them ahead of it.
Tests used:
dimeric hDII4-hFc [1] = molecular target: T1, dimeric hDII4-hFc (human, UniProt Q9NR61 27-524, biotin in Example 3 (biotin-DII4-hFc), site not stated); experiment: cell-based or functional assay
[2] = molecular target: T2, chimeric DII4 protein #5 (human N-terminal domain, S27-R172, in mouse DII4) fused to mouse IgG2a-Fc (human; mouse, UniProt Q9JI71 174-525); experiment: SPR BIACORE; DII4 protein captured by anti-mouse IgG; antibody at 100 µg/ml
T2 construct: not shown: mouse IgG2a-Fc fragment
Description: (§1) Briefly, each of the DII4 proteins was captured (240-470 RU) on goat anti-mouse IgG antibody surfaces, followed by injection of test antibody at a concentration of 100 μg/ml (Table 11).

[3] = molecular target: T3, chimeric DII4 protein #6 (human DSL domain, V173-Q218, in mouse DII4) fused to mouse IgG2a-Fc (mouse; human, UniProt Q9JI71 28-173; Q9JI71 220-525); experiment: as above
T3 construct: not shown: mouse IgG2a-Fc fragment
Description: as §1

[4] = molecular target: T4, chimeric DII4 protein #1 (human N-terminal and DSL domains, S27-Q218, in mouse DII4) fused to mouse IgG2a-Fc (human; mouse, UniProt Q9JI71 220-525); experiment: as above
T4 construct: Used as CHO-K1 conditioned medium; not shown: mouse IgG2a-Fc fragment
Description: as §1

[5] = molecular target: T5, chimeric DII4 protein #3 (human N-terminal, DSL, EGF-1 and EGF-2 domains, S27-Q283, in mouse DII4) fused to … (human; mouse, UniProt Q9JI71 285-525); experiment: as above
T5 construct: not shown: mouse IgG2a-Fc fragment
Description: as §1

[6] = molecular target: T6, monomeric hDII4 (human delta-like ligand 4) (human, UniProt Q9NR61 27-524); experiment: SPR BIACORE; antibody captured by anti-hFc; monomeric DII4 analyte
T6 construct: also called monomeric DII4 protein
Description: (§2) Equilibrium dissociation constants (KD values) for antigen binding to the selected antibodies described above were determined by surface kinetics on a real-time biosensor surface plasmon resonance assay (BIACORE™ 2000). The antibody was captured on a goat anti-mouse IgG polyclonal antibody surface created through direct chemical coupling to a BIACORE™ chip to form a captured antibody surface. […] Kinetic analysis was performed to calculate KD, dissociation rate constants, and half-life of antigen/antibody complex dissociation (Table 1). […] Antibodies were presented by goat anti-hFc polyclonal antibody reagent (Jackson Immuno Research Lab) immobilized on BIACORE™ chip, and exposed to either dimeric DII4-mFc or monomeric DII4 protein (Table 2).

[7] = molecular target: hDII4 on cells (DII4 expressing HUVEC; engineered C6 rat glioma cells expressing hDII4) (human, UniProt Q9NR61 27-685); experiment: cell-based or functional assay
Chain of hDII4 on cells (DII4 expressing HUVEC; engineered C6 rat glioma cells expressing hDII4) (Q9NR61 27-685 limits assumed, stated change not applied): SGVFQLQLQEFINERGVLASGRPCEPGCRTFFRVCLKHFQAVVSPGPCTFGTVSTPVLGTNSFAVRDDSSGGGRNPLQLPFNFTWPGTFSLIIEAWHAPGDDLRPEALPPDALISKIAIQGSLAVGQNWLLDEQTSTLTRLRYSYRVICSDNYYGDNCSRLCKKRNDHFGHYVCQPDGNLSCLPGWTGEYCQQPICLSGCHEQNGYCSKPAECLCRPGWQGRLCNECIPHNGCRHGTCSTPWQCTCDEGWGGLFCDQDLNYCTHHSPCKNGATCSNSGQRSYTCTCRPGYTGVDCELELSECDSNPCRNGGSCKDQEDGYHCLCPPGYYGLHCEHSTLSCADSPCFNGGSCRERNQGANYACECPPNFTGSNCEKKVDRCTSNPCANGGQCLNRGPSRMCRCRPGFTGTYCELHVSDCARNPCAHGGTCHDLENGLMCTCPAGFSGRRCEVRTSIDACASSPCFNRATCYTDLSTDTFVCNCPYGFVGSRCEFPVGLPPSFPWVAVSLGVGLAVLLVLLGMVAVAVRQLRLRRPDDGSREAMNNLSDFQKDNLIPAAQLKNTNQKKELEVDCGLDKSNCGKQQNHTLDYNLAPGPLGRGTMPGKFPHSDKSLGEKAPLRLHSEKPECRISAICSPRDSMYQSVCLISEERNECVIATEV

dimeric hDII4-hFc [8] = molecular target: T1, dimeric hDII4-hFc; experiment: competition ELISA; antibody titrated against 25 pM biotin-DII4-hFc; free biotin-DII4-hFc on Notch-hFc plate
Description: The ability of the antibodies to block DII4 binding to Notch was evaluated with an ELISA-based immunoassay. Briefly, Notch-hFc recombinant protein was coated on a 96-well plate in PBS buffer overnight at 4° C. at […], and the nonspecific binding sites were blocked with BSA.

hDII4-mFc = molecular target: T7, hDII4-mFc (human, UniProt Q9NR61 27-524); experiment: SPR BIACORE; antibody captured by anti-hFc; dimeric DII4-mFc analyte
T7 construct: also called dimeric DII4-mFc; not shown: mouse Fc
T7 sequence (Q9NR61 27-524 limits assumed): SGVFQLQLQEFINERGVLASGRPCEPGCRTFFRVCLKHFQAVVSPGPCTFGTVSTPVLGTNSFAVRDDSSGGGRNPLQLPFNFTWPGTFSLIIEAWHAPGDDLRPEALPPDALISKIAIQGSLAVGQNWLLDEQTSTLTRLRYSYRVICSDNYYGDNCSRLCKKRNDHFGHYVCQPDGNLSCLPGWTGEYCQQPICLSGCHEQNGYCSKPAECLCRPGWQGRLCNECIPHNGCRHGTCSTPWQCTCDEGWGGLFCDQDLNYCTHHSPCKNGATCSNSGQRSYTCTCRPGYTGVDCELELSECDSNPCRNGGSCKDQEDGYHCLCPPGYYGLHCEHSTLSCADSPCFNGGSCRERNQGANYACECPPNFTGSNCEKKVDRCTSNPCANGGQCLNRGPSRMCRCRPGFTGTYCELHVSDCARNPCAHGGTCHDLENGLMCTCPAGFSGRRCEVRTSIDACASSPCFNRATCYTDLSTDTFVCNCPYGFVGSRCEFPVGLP
Description: as §2

[9] = molecular target: T8, hDII3-hFc (human delta-like ligand 3 fused to human Fc) (human, UniProt Q9NYJ7 27-490); experiment: OCTET; antibody captured by biotin-anti-hK on streptavidin biosensor
T8 construct: not shown: human Fc
T8 sequence: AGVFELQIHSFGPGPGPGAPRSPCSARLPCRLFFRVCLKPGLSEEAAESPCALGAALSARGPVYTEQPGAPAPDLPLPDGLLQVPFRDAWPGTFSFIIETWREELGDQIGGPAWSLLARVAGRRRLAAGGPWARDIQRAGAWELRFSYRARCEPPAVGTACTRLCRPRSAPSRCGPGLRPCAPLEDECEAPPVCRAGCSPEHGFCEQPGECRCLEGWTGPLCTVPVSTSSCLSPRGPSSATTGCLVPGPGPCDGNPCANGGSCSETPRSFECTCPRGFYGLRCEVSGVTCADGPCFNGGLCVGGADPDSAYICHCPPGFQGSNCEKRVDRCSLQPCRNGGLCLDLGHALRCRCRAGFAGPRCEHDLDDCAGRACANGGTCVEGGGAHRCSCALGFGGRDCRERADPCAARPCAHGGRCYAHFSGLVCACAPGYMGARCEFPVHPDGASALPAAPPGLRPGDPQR
Description: Briefly, strepavidin high binding FA biosensors (ForteBio, Inc., Menlo Park, Calif.) were first incubated with biotin-anti-hK at 5 μg/ml for 10 min at 30° C., to achieve saturation. […] Changes in the thickness of the biological layer after each incubation were measured.

[10] = molecular target: T8, hDII3-hFc (human delta-like ligand 3 …); experiment: SPR BIACORE; ligand amine-coupled to CM-5 chip; antibody injected
Text: An alternative BIACORE™ format was used to assess cross-reactivity between anti-hDII4 antibody and either hDII1-hFc or hDII3-hFc.

- HUVEC proliferation assay IC50 (dimeric hDII4-hFc [1]): 0.096 nM
- binding result [2]: binds
- binding result [3]: binds
- binding result [4]: binds
- binding result [5]: binds
- Kd [6]: 0.399 nM
- EphrinB2 Expression IC50 [7]: 0.305 nM
- Hes1 Expression IC50 [7]: 0.329 nM
- IC50 (dimeric hDII4-hFc [8]): 0.05 nM
- Kd (hDII4-mFc): 0.018 nM
- binding result [9]: no binding (tested: 200 nM)
B1: 318518-01A10-D8 (antibody, human IgG1)
heavy: not shown
VL: EIVMTQSPATLSLSPGERATLSCRASQSVSSYLAWYQQKPGQAPRLLIYDASNRATGIPARFSGSGSGTDFTLTISSLEPEDFAVYYCQHRSNWPPTFGGGTKVEIK
notes: HCVR 429 with hIgG1 constant region 950; also called REGN281; 318518-1A10-D8

- binding result [2]: binds
- binding result [3]: binds
- binding result [4]: binds
- binding result [5]: binds
- binding result [10]: no binding (tested: 300 µg/ml)
B2: REGN422 (antibody, human IgG4 S228P)
heavy: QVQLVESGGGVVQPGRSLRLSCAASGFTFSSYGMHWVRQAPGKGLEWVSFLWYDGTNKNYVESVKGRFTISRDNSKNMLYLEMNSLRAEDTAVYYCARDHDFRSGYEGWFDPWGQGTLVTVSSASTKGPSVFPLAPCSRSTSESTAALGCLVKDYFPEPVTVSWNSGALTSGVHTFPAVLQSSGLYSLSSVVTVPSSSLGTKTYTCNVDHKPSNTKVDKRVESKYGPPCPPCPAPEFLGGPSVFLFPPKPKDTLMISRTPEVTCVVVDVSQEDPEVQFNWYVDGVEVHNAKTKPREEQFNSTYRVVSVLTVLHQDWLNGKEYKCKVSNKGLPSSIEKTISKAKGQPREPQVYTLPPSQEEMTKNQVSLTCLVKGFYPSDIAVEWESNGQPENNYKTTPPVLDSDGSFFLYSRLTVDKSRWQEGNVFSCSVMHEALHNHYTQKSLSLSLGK
VL: B1 VL with M4L
notes: HCVR 901 with modified hIgG4 constant region 952

- binding result [2]: binds
- binding result [3]: binds
- binding result [4]: binds
- binding result [5]: binds
- binding result [10]: no binding (tested: 300 µg/ml)
B3: REGN421 (antibody, human IgG1)
heavy: not shown
VL: B1 VL with M4L
notes: HCVR 901 with hIgG1 constant region 950

Source: patent publication US20080181899A1 (Regeneron, published 2008)
